In patent US20250313611A1:
Where “and” joins values, the source holds several entries; their conditions need not be identical. Equal values may be shown once.

Target: spike proteins of the tested omicron
Assay: cell-based or functional assay

B1: VHH R3_DC23 (VHH)
VHH: QVQLQESGGGLVQAGDSLTLSCAVSGRIFSTYTMGWFRQAPGKEREFVAAVRWGAGTIYYADSMKGRFTISRDSAKNTVDLQMNSTKPEDTAVYYCGAAYVSKANYGSLWYQDSRRYDYWGQGTQVTVSS
**Q.** B1 was tested. Which IC50, neutralisation of VSV spike pseudotypes did it give?
**A.** Its IC50, neutralisation of VSV spike pseudotypes is 2.9 ng/mL and 5.7 ng/mL.
